{"source": "patent US20170362317A1", "biological_target": "IL6 receptor on human multiple myeloma U266 cells (human) (UniProt P08887)", "sequence (P08887 20-468)": "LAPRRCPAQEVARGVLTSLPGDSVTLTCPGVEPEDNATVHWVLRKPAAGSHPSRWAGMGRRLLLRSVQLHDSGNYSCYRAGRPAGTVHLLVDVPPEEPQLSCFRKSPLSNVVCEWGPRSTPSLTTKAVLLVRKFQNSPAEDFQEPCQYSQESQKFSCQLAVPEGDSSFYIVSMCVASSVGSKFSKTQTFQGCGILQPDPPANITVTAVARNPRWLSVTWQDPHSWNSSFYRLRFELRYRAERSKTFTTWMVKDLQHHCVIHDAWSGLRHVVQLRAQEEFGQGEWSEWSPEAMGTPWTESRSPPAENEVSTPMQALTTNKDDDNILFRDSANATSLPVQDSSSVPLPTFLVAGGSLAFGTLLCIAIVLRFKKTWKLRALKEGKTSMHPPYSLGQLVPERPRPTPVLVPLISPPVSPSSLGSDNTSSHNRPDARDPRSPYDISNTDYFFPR", "assay": "cell-based or functional assay", "data": [{"substance": "Actemra, an anti-IL6 receptor humanized antibody", "values": [{"measurement": "inhibition percentage of control of STAT3 phosphorylation in U266 cells, antibody at 0.05 µg/ml", "value": 0, "unit": "%"}, {"measurement": "inhibition percentage of control of STAT3 phosphorylation in U266 cells, antibody at 0.5 µg/ml", "value": 17, "unit": "%"}]}]}
